Assay results reported in PMC9482650, “Quantitative fragmentomics allow affinity mapping of interactomes” (Nature Communications, 2022).
Numbering of substitutions follows the chain as printed.

What was measured:
Experiment in all cases: holdup assay
Parameters in all cases: key: below the threshold = too weak to quantify, mostly under pKd 3.1 to 4
Conditions in all cases: plain residues with an end cap or a label only (N-terminal biotin on a linker: ado-ado)
IL16_3, Q14005 = molecular target: IL16_3, Q14005
FRMPD4, Q14CM0 = molecular target: FRMPD4, Q14CM0
PTPN3, P26045 = molecular target: PTPN3, P26045
GRID2IP_2, A4D2P6 = molecular target: GRID2IP_2, A4D2P6
GRIP2_6, Q9C0E4 = molecular target: GRIP2_6, Q9C0E4
PDZRN3_1, Q9UPQ7 = molecular target: T1, PDZRN3_1, Q9UPQ7
T1 sequence (Q9UPQ7 244-349, limits assumed, looked up): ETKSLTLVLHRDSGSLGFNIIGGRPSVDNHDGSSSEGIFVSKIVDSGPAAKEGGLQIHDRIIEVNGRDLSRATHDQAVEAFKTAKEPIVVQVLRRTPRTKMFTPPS

IL16_1, Q14005 = molecular target: IL16_1, Q14005
GRIP2_5, Q9C0E4 = molecular target: GRIP2_5, Q9C0E4
MPP7, Q5T2T1 = molecular target: T2, MPP7, Q5T2T1
T2 sequence (Q5T2T1 134-230, limits assumed, looked up): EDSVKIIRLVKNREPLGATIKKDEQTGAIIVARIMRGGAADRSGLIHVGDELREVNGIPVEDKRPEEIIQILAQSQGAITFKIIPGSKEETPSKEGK

APBA2_2, Q99767 = molecular target: T3, APBA2_2, Q99767
T3 sequence (Q99767 654-744, limits assumed, looked up): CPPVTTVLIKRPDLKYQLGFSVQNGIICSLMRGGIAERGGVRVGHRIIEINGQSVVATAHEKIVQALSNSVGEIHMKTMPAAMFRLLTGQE

DLG1_1, Q12959 = molecular target: DLG1_1, Q12959
SNTG1, Q9NSN8 = molecular target: T4, SNTG1, Q9NSN8
T4 sequence (Q9NSN8 52-150, limits assumed, looked up): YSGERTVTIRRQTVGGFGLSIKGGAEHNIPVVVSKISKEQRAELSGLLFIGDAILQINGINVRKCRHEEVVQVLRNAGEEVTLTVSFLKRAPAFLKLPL

Inadl_10, Q8NI35 = molecular target: Inadl_10, Q8NI35
LNX1_3, Q8TBB1 = molecular target: LNX1_3, Q8TBB1
NHERF3_1, Q5T2W1 = molecular target: T5, NHERF3_1, Q5T2W1
T5 sequence (Q5T2W1 4-100, limits assumed, looked up): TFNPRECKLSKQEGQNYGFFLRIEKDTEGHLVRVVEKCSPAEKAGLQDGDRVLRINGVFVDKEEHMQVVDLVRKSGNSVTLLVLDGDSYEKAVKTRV

ARHGAP21, Q5T5U3 = molecular target: T6, ARHGAP21, Q5T5U3
T6 sequence (Q5T5U3 45-169, limits assumed, looked up): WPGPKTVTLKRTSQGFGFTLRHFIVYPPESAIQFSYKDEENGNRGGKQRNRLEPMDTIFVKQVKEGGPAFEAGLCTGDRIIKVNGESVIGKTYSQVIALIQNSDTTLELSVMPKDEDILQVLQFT

PCLO, Q9Y6V0 = molecular target: T7, PCLO, Q9Y6V0
T7 sequence (Q9Y6V0 4491-4600, limits assumed, looked up): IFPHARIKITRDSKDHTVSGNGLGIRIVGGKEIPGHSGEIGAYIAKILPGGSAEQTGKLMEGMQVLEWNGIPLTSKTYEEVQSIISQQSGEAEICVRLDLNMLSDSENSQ

GRIP2_3, Q9C0E4 = molecular target: GRIP2_3, Q9C0E4
TJP1_3, Q07157 = molecular target: TJP1_3, Q07157
APBA1_2, Q02410 = molecular target: T8, APBA1_2, Q02410
T8 sequence (Q02410 742-832, limits assumed, looked up): T3 sequence (Q99767 654-744, limits assumed, looked up) with K10R, K15R, A59P, Q65H, A66I, S70A, F84Y, G89A

MPP2, Q14168 = molecular target: T9, MPP2, Q14168
T9 sequence (Q14168 180-250, limits assumed, looked up): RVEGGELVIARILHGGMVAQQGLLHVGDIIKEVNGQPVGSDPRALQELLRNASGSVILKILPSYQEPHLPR

DLG4_2, P78352 = molecular target: DLG4_2, P78352
GRIP2_4, Q9C0E4 = molecular target: GRIP2_4, Q9C0E4
SCRIB_3, Q14160 = molecular target: SCRIB_3, Q14160
LNX1_1, Q8TBB1 = molecular target: LNX1_1, Q8TBB1
LNX2_3, Q8N448 = molecular target: T10, LNX2_3, Q8N448
T10 sequence (Q8N448 463-564, limits assumed, looked up): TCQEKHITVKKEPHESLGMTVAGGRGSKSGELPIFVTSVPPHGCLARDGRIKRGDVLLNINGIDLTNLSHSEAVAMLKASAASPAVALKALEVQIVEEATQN

MAGI2_4, Q86UL8 = molecular target: MAGI2_4, Q86UL8
MAGI2_5, Q86UL8 = molecular target: MAGI2_5, Q86UL8
Chain of MAGI2_5, Q86UL8 (Q86UL8 915-1017): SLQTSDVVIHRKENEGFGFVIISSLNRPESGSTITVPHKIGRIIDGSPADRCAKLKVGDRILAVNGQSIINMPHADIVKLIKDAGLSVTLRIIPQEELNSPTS

Chain of GRIP2_4, Q9C0E4 (Q9C0E4 446-548): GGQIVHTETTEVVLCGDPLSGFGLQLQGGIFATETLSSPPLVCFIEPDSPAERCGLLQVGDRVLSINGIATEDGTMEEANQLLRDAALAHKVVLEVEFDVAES
Chain of GRID2IP_2, A4D2P6 (A4D2P6 272-370): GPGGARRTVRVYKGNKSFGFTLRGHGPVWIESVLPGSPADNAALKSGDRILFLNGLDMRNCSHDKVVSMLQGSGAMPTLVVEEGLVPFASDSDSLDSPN
Chain of DLG4_2, P78352 (P78352 155-259): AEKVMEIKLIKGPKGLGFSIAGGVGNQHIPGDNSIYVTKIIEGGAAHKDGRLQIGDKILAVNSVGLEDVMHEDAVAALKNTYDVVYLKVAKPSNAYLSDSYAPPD
Chain of LNX1_3, Q8TBB1 (Q8TBB1 500-596): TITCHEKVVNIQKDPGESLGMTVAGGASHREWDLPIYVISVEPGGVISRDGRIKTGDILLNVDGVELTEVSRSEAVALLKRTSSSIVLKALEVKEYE
Chain of GRIP2_6, Q9C0E4 (Q9C0E4 648-740): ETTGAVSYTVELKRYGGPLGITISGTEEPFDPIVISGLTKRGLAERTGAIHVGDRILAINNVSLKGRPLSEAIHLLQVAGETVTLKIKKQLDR
Chain of TJP1_3, Q07157 (Q07157 416-512): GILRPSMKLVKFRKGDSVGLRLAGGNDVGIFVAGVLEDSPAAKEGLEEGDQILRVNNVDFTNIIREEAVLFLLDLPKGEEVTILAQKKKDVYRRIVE
Chain of GRIP2_5, Q9C0E4 (Q9C0E4 544-642): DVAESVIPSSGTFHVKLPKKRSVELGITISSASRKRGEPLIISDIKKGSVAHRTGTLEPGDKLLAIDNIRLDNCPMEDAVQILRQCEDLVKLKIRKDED
Chain of Inadl_10, Q8NI35 (Q8NI35 1673-1763): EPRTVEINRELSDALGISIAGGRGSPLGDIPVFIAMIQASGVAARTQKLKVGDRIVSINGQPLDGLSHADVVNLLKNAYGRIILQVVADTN
Chain of LNX1_1, Q8TBB1 (Q8TBB1 261-371): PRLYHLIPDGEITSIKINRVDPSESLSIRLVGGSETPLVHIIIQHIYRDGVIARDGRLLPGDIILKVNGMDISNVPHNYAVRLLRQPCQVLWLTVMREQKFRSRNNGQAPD
Chain of IL16_1, Q14005 (Q14005 210-306): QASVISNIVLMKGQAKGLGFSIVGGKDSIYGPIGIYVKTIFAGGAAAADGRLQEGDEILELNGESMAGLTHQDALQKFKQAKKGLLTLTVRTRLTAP
Chain of GRIP2_3, Q9C0E4 (Q9C0E4 238-339): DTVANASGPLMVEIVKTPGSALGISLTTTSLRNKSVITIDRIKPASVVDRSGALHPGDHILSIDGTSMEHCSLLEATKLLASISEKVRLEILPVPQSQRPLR
Chain of PTPN3, P26045 (P26045 505-587): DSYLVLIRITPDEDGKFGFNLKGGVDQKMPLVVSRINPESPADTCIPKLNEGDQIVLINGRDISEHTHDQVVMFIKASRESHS
Chain of SCRIB_3, Q14160 (Q14160 999-1103): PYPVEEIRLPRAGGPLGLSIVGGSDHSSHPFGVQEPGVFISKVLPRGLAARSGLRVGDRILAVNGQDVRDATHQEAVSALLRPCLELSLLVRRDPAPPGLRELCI
Chain of FRMPD4, Q14CM0 (Q14CM0 67-160): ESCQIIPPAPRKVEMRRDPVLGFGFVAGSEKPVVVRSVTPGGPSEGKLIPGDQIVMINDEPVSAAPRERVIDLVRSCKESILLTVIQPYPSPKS
Chain of MAGI2_4, Q86UL8 (Q86UL8 772-865): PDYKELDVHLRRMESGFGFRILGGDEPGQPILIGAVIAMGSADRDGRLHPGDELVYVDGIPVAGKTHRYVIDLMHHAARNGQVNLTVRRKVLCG
Chain of IL16_3, Q14005 (Q14005 1107-1207): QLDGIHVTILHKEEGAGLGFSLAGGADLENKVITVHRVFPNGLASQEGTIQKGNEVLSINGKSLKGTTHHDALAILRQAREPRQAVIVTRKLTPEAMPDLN

For SLNANEVEWF [RNF130, Q86XS8], the pKd (IL16_3, Q14005) was “below the threshold”, the pKd (FRMPD4, Q14CM0) was 3.5 and the pKd (PTPN3, P26045) was 4.36. For the same binder, the pKd (GRID2IP_2, A4D2P6) was “below the threshold”, the pKd (GRIP2_6, Q9C0E4) was “below the threshold” and the pKd (PDZRN3_1, Q9UPQ7) was “below the threshold”. For the same binder, the pKd (IL16_1, Q14005) was “below the threshold”, the pKd (GRIP2_5, Q9C0E4) was “below the threshold” and the pKd (MPP7, Q5T2T1) was 3.53. The pKd (APBA2_2, Q99767) was “below the threshold”, the pKd (DLG1_1, Q12959) was “below the threshold” and the pKd (SNTG1, Q9NSN8) was “below the threshold”. The pKd (Inadl_10, Q8NI35) was “below the threshold”, the pKd (LNX1_3, Q8TBB1) was “below the threshold” and the pKd (NHERF3_1, Q5T2W1) was 3.89. The pKd (ARHGAP21, Q5T5U3) was 4.49, the pKd (PCLO, Q9Y6V0) was “below the threshold” and the pKd (GRIP2_3, Q9C0E4) was “below the threshold”. The pKd (TJP1_3, Q07157) was “below the threshold”, the pKd (APBA1_2, Q02410) was 3.79 and the pKd (MPP2, Q14168) was “below the threshold”. The pKd (DLG4_2, P78352) was 3.51, the pKd (GRIP2_4, Q9C0E4) was “below the threshold” and the pKd (SCRIB_3, Q14160) was 3.96. For the same binder, the pKd (LNX1_1, Q8TBB1) was 3.75, the pKd (LNX2_3, Q8N448) was “below the threshold” and the pKd (MAGI2_4, Q86UL8) was 3.94. For the same binder, the pKd (MAGI2_5, Q86UL8) was 3.51.

For AAVENKVTDL [PLXNB1, O43157], the pKd (IL16_3, Q14005) was “below the threshold”, the pKd (FRMPD4, Q14CM0) was 3.68 and the pKd (PTPN3, P26045) was 4.68. For the same binder, the pKd (GRID2IP_2, A4D2P6) was 4.56, the pKd (GRIP2_6, Q9C0E4) was “below the threshold” and the pKd (PDZRN3_1, Q9UPQ7) was “below the threshold”. The pKd (IL16_1, Q14005) was “below the threshold”, the pKd (GRIP2_5, Q9C0E4) was “below the threshold” and the pKd (MPP7, Q5T2T1) was “below the threshold”. For the same binder, the pKd (APBA2_2, Q99767) was “below the threshold”, the pKd (DLG1_1, Q12959) was 3.7 and the pKd (SNTG1, Q9NSN8) was 3.74. The pKd (Inadl_10, Q8NI35) was “below the threshold”, the pKd (LNX1_3, Q8TBB1) was “below the threshold” and the pKd (NHERF3_1, Q5T2W1) was “below the threshold”. The pKd (ARHGAP21, Q5T5U3) was 4.07, the pKd (PCLO, Q9Y6V0) was “below the threshold” and the pKd (GRIP2_3, Q9C0E4) was “below the threshold”. For the same binder, the pKd (TJP1_3, Q07157) was “below the threshold”, the pKd (APBA1_2, Q02410) was 4.23 and the pKd (MPP2, Q14168) was “below the threshold”. For the same binder, the pKd (DLG4_2, P78352) was 4.2, the pKd (GRIP2_4, Q9C0E4) was “below the threshold” and the pKd (SCRIB_3, Q14160) was 4.94. The pKd (LNX1_1, Q8TBB1) was 4.19, the pKd (LNX2_3, Q8N448) was “below the threshold” and the pKd (MAGI2_4, Q86UL8) was “below the threshold”. For the same binder, the pKd (MAGI2_5, Q86UL8) was “below the threshold”.

For KPGKGSETVV [FZD4, Q9ULV1], the pKd (IL16_3, Q14005) was “below the threshold”, the pKd (FRMPD4, Q14CM0) was “below the threshold” and the pKd (PTPN3, P26045) was 4.13. For the same binder, the pKd (GRID2IP_2, A4D2P6) was “below the threshold”, the pKd (GRIP2_6, Q9C0E4) was “below the threshold” and the pKd (PDZRN3_1, Q9UPQ7) was 3.71. For the same binder, the pKd (IL16_1, Q14005) was 3.61, the pKd (GRIP2_5, Q9C0E4) was “below the threshold” and the pKd (MPP7, Q5T2T1) was “below the threshold”. For the same binder, the pKd (APBA2_2, Q99767) was “below the threshold”, the pKd (DLG1_1, Q12959) was 4.65 and the pKd (SNTG1, Q9NSN8) was 3.91. For the same binder, the pKd (Inadl_10, Q8NI35) was “below the threshold”, the pKd (LNX1_3, Q8TBB1) was “below the threshold” and the pKd (NHERF3_1, Q5T2W1) was “below the threshold”. For the same binder, the pKd (ARHGAP21, Q5T5U3) was 3.93, the pKd (PCLO, Q9Y6V0) was “below the threshold” and the pKd (GRIP2_3, Q9C0E4) was “below the threshold”. The pKd (TJP1_3, Q07157) was “below the threshold”, the pKd (APBA1_2, Q02410) was 3.64 and the pKd (MPP2, Q14168) was “below the threshold”. The pKd (DLG4_2, P78352) was 4.92, the pKd (GRIP2_4, Q9C0E4) was “below the threshold” and the pKd (SCRIB_3, Q14160) was 3.94. The pKd (LNX1_1, Q8TBB1) was “below the threshold”, the pKd (LNX2_3, Q8N448) was “below the threshold” and the pKd (MAGI2_4, Q86UL8) was 4.48. The pKd (MAGI2_5, Q86UL8) was 3.55.

In the case of TRKRSGEAAV [PFKM, P08237], the pKd (IL16_3, Q14005) is reported as “below the threshold”, the pKd (FRMPD4, Q14CM0) is reported as 3.58 and the pKd (PTPN3, P26045) is reported as 4.15. For the same binder, the pKd (GRID2IP_2, A4D2P6) was “below the threshold”, the pKd (GRIP2_6, Q9C0E4) was “below the threshold” and the pKd (PDZRN3_1, Q9UPQ7) was “below the threshold”. For the same binder, the pKd (IL16_1, Q14005) was 3.63, the pKd (GRIP2_5, Q9C0E4) was “below the threshold” and the pKd (MPP7, Q5T2T1) was “below the threshold”. The pKd (APBA2_2, Q99767) was “below the threshold”, the pKd (DLG1_1, Q12959) was “below the threshold” and the pKd (SNTG1, Q9NSN8) was “below the threshold”. For the same binder, the pKd (Inadl_10, Q8NI35) was “below the threshold”, the pKd (LNX1_3, Q8TBB1) was “below the threshold” and the pKd (NHERF3_1, Q5T2W1) was “below the threshold”. The pKd (ARHGAP21, Q5T5U3) was 3.83, the pKd (PCLO, Q9Y6V0) was “below the threshold” and the pKd (GRIP2_3, Q9C0E4) was “below the threshold”. The pKd (TJP1_3, Q07157) was “below the threshold”, the pKd (APBA1_2, Q02410) was 3.9 and the pKd (MPP2, Q14168) was “below the threshold”. For the same binder, the pKd (DLG4_2, P78352) was 3.93, the pKd (GRIP2_4, Q9C0E4) was “below the threshold” and the pKd (SCRIB_3, Q14160) was “below the threshold”. The pKd (LNX1_1, Q8TBB1) was “below the threshold”, the pKd (LNX2_3, Q8N448) was “below the threshold” and the pKd (MAGI2_4, Q86UL8) was “below the threshold”. The pKd (MAGI2_5, Q86UL8) was “below the threshold”.
